# In patent US20080267976A1:
# Target: V158 FcγRIIIa (UniProt P08637)
# Test: competition AlphaScreen
# Sequence of V158 FcγRIIIa (P08637 17-208 F176V): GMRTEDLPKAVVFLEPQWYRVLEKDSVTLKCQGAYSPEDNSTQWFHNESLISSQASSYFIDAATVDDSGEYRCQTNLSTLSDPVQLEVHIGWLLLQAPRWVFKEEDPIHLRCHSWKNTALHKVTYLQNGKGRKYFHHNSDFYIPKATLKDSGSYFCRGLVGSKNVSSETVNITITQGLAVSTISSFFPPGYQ
row,IC50 [nM],Substance
1,5.1,S239D/I332E H3.69_L3.71 AC10 IgG1
2,52,S239D/I332E/A330Y H3.69_V2_L3.71 AC10 IgG(1/2) ELLGG
3,4,S239D/I332E/A330Y/K326E H3.69_V2_L3.71 AC10 IgG(1/2) ELLGG
4,0.882,S239D/I332E/H268E H3.69_V2_L3.71 AC10 IgG(1/2) ELLGG
5,10.7,S239D/I332E/K246H/S324I H3.69_V2_L3.71 AC10 IgG(1/2) ELLGG
6,5.79,S239D/I332E/K246H/T260H H3.69_V2_L3.71 AC10 IgG(1/2) ELLGG
7,5.26,S239D/I332E/K326T H3.69_V2_L3.71 AC10 IgG(1/2) ELLGG
8,1.28,S239D/I332E/S298A H3.69_V2_L3.71 AC10 IgG(1/2) ELLGG
9,8.93,S239D/I332E/S324G H3.69_V2_L3.71 AC10 IgG(1/2) ELLGG

# Target: V158 FcγRIIIa (UniProt P08637)
# Test: competition AlphaScreen; second row
row,IC50 [nM],Substance
1,0.531,S239D/I332E H3.69_L3.71 AC10 IgG1
